Assay results published in US20130210709A1 (ANCHOR THERAPEUTICS, published 2013).
* marks the point of attachment. C27H50N3O2SC(O)‑ = not defined here; Palmitoyl = CCCCCCCCCCCCCCCC(=O)*

B1: CXCR4 i3 loop compound 96 (peptide)
peptide: Palmitoyl-SHSKGHQKRKALK-NH2
SMILES: CCCCCCCCCCCCCCCC(=O)N[C@@H](CO)C(=O)N[C@@H](Cc1c[nH]cn1)C(=O)N[C@@H](CO)C(=O)N[C@@H](CCCCN)C(=O)NCC(=O)N[C@@H](Cc1c[nH]cn1)C(=O)N[C@@H](CCC(N)=O)C(=O)N[C@@H](CCCCN)C(=O)N[C@@H](CCCNC(=N)N)C(=O)N[C@@H](CCCCN)C(=O)N[C@@H](C)C(=O)N[C@@H](CC(C)C)C(=O)N[C@@H](CCCCN)C(N)=O
B2: CXCR4 i3 loop compound 97 (peptide)
peptide: Palmitoyl-HSKGHQKRKALKT-NH2
SMILES: CCCCCCCCCCCCCCCC(=O)N[C@@H](Cc1c[nH]cn1)C(=O)N[C@@H](CO)C(=O)N[C@@H](CCCCN)C(=O)NCC(=O)N[C@@H](Cc1c[nH]cn1)C(=O)N[C@@H](CCC(N)=O)C(=O)N[C@@H](CCCCN)C(=O)N[C@@H](CCCNC(=N)N)C(=O)N[C@@H](CCCCN)C(=O)N[C@@H](C)C(=O)N[C@@H](CC(C)C)C(=O)N[C@@H](CCCCN)C(=O)N[C@H](C(N)=O)[C@@H](C)O
B3: CXCR4 i3 loop compound 95 (peptide)
peptide: Palmitoyl-LSHSKGHQKRKALK-NH2
SMILES: CCCCCCCCCCCCCCCC(=O)N[C@@H](CC(C)C)C(=O)N[C@@H](CO)C(=O)N[C@@H](Cc1c[nH]cn1)C(=O)N[C@@H](CO)C(=O)N[C@@H](CCCCN)C(=O)NCC(=O)N[C@@H](Cc1c[nH]cn1)C(=O)N[C@@H](CCC(N)=O)C(=O)N[C@@H](CCCCN)C(=O)N[C@@H](CCCNC(=N)N)C(=O)N[C@@H](CCCCN)C(=O)N[C@@H](C)C(=O)N[C@@H](CC(C)C)C(=O)N[C@@H](CCCCN)C(N)=O
B4: Compound No. 90 (Pal-KLSHSKGHQKRKALKTTV-amide) (peptide)
peptide: Palmitoyl-KLSHSKGHQKRKALKTTV-NH2
SMILES: CCCCCCCCCCCCCCCC(=O)N[C@@H](CCCCN)C(=O)N[C@@H](CC(C)C)C(=O)N[C@@H](CO)C(=O)N[C@@H](Cc1c[nH]cn1)C(=O)N[C@@H](CO)C(=O)N[C@@H](CCCCN)C(=O)NCC(=O)N[C@@H](Cc1c[nH]cn1)C(=O)N[C@@H](CCC(N)=O)C(=O)N[C@@H](CCCCN)C(=O)N[C@@H](CCCNC(=N)N)C(=O)N[C@@H](CCCCN)C(=O)N[C@@H](C)C(=O)N[C@@H](CC(C)C)C(=O)N[C@@H](CCCCN)C(=O)N[C@H](C(=O)N[C@H](C(=O)N[C@H](C(N)=O)C(C)C)[C@@H](C)O)[C@@H](C)O
B5: CXCR4 i3 loop compound 93 (peptide)
peptide: Palmitoyl-KLSHSKGHQKRKAL-NH2
SMILES: CCCCCCCCCCCCCCCC(=O)N[C@@H](CCCCN)C(=O)N[C@@H](CC(C)C)C(=O)N[C@@H](CO)C(=O)N[C@@H](Cc1c[nH]cn1)C(=O)N[C@@H](CO)C(=O)N[C@@H](CCCCN)C(=O)NCC(=O)N[C@@H](Cc1c[nH]cn1)C(=O)N[C@@H](CCC(N)=O)C(=O)N[C@@H](CCCCN)C(=O)N[C@@H](CCCNC(=N)N)C(=O)N[C@@H](CCCCN)C(=O)N[C@@H](C)C(=O)N[C@@H](CC(C)C)C(N)=O
B6: Compound No. 88 (Pal-SKLSHSKGHQKRKALKTTVIL-amide) (peptide)
peptide: Palmitoyl-SKLSHSKGHQKRKALKTTVIL-NH2
SMILES: CCCCCCCCCCCCCCCC(=O)N[C@@H](CO)C(=O)N[C@@H](CCCCN)C(=O)N[C@@H](CC(C)C)C(=O)N[C@@H](CO)C(=O)N[C@@H](Cc1c[nH]cn1)C(=O)N[C@@H](CO)C(=O)N[C@@H](CCCCN)C(=O)NCC(=O)N[C@@H](Cc1c[nH]cn1)C(=O)N[C@@H](CCC(N)=O)C(=O)N[C@@H](CCCCN)C(=O)N[C@@H](CCCNC(=N)N)C(=O)N[C@@H](CCCCN)C(=O)N[C@@H](C)C(=O)N[C@@H](CC(C)C)C(=O)N[C@@H](CCCCN)C(=O)N[C@H](C(=O)N[C@H](C(=O)N[C@H](C(=O)N[C@H](C(=O)N[C@@H](CC(C)C)C(N)=O)[C@@H](C)CC)C(C)C)[C@@H](C)O)[C@@H](C)O
B7: CXCR4 i3 loop compound 92 (peptide)
peptide: Palmitoyl-KLSHSKGHQKRKALK-NH2
SMILES: CCCCCCCCCCCCCCCC(=O)N[C@@H](CCCCN)C(=O)N[C@@H](CC(C)C)C(=O)N[C@@H](CO)C(=O)N[C@@H](Cc1c[nH]cn1)C(=O)N[C@@H](CO)C(=O)N[C@@H](CCCCN)C(=O)NCC(=O)N[C@@H](Cc1c[nH]cn1)C(=O)N[C@@H](CCC(N)=O)C(=O)N[C@@H](CCCCN)C(=O)N[C@@H](CCCNC(=N)N)C(=O)N[C@@H](CCCCN)C(=O)N[C@@H](C)C(=O)N[C@@H](CC(C)C)C(=O)N[C@@H](CCCCN)C(N)=O
B8: CXCR4 i3 loop compound 94 (peptide)
peptide: Palmitoyl-KLSHSKGHQKRKA-NH2
SMILES: CCCCCCCCCCCCCCCC(=O)N[C@@H](CCCCN)C(=O)N[C@@H](CC(C)C)C(=O)N[C@@H](CO)C(=O)N[C@@H](Cc1c[nH]cn1)C(=O)N[C@@H](CO)C(=O)N[C@@H](CCCCN)C(=O)NCC(=O)N[C@@H](Cc1c[nH]cn1)C(=O)N[C@@H](CCC(N)=O)C(=O)N[C@@H](CCCCN)C(=O)N[C@@H](CCCNC(=N)N)C(=O)N[C@@H](CCCCN)C(=O)N[C@@H](C)C(N)=O
B9: CXCR4 i3 loop compound 89 (peptide)
peptide: Palmitoyl-KLSHSKGHQKRKALKTTVIL-NH2
SMILES: CCCCCCCCCCCCCCCC(=O)N[C@@H](CCCCN)C(=O)N[C@@H](CC(C)C)C(=O)N[C@@H](CO)C(=O)N[C@@H](Cc1c[nH]cn1)C(=O)N[C@@H](CO)C(=O)N[C@@H](CCCCN)C(=O)NCC(=O)N[C@@H](Cc1c[nH]cn1)C(=O)N[C@@H](CCC(N)=O)C(=O)N[C@@H](CCCCN)C(=O)N[C@@H](CCCNC(=N)N)C(=O)N[C@@H](CCCCN)C(=O)N[C@@H](C)C(=O)N[C@@H](CC(C)C)C(=O)N[C@@H](CCCCN)C(=O)N[C@H](C(=O)N[C@H](C(=O)N[C@H](C(=O)N[C@H](C(=O)N[C@@H](CC(C)C)C(N)=O)[C@@H](C)CC)C(C)C)[C@@H](C)O)[C@@H](C)O
B10: CXCR4 i1 loop compound 41 (peptide)
peptide: Palmitoyl-KKLRSMTDKYRLHLSV-NH2
SMILES: CCCCCCCCCCCCCCCC(=O)N[C@@H](CCCCN)C(=O)N[C@@H](CCCCN)C(=O)N[C@@H](CC(C)C)C(=O)N[C@@H](CCCNC(=N)N)C(=O)N[C@@H](CO)C(=O)N[C@@H](CCSC)C(=O)N[C@H](C(=O)N[C@@H](CC(=O)O)C(=O)N[C@@H](CCCCN)C(=O)N[C@@H](Cc1ccc(O)cc1)C(=O)N[C@@H](CCCNC(=N)N)C(=O)N[C@@H](CC(C)C)C(=O)N[C@@H](Cc1c[nH]cn1)C(=O)N[C@@H](CC(C)C)C(=O)N[C@@H](CO)C(=O)N[C@H](C(N)=O)C(C)C)[C@@H](C)O
B11: CXCR4 i1 loop compound 40 (peptide)
peptide: Palmitoyl-YQKKLRSMTDKYRLHLSV-NH2
SMILES: CCCCCCCCCCCCCCCC(=O)N[C@@H](Cc1ccc(O)cc1)C(=O)N[C@@H](CCC(N)=O)C(=O)N[C@@H](CCCCN)C(=O)N[C@@H](CCCCN)C(=O)N[C@@H](CC(C)C)C(=O)N[C@@H](CCCNC(=N)N)C(=O)N[C@@H](CO)C(=O)N[C@@H](CCSC)C(=O)N[C@H](C(=O)N[C@@H](CC(=O)O)C(=O)N[C@@H](CCCCN)C(=O)N[C@@H](Cc1ccc(O)cc1)C(=O)N[C@@H](CCCNC(=N)N)C(=O)N[C@@H](CC(C)C)C(=O)N[C@@H](Cc1c[nH]cn1)C(=O)N[C@@H](CC(C)C)C(=O)N[C@@H](CO)C(=O)N[C@H](C(N)=O)C(C)C)[C@@H](C)O
B12: CXCR4 i1 loop compound 42 (peptide)
peptide: Palmitoyl-KKLRSMTDKYRLHL-NH2
SMILES: CCCCCCCCCCCCCCCC(=O)N[C@@H](CCCCN)C(=O)N[C@@H](CCCCN)C(=O)N[C@@H](CC(C)C)C(=O)N[C@@H](CCCNC(=N)N)C(=O)N[C@@H](CO)C(=O)N[C@@H](CCSC)C(=O)N[C@H](C(=O)N[C@@H](CC(=O)O)C(=O)N[C@@H](CCCCN)C(=O)N[C@@H](Cc1ccc(O)cc1)C(=O)N[C@@H](CCCNC(=N)N)C(=O)N[C@@H](CC(C)C)C(=O)N[C@@H](Cc1c[nH]cn1)C(=O)N[C@@H](CC(C)C)C(N)=O)[C@@H](C)O

Molecular target: T1, CXCR4 receptor (human, UniProt P61073 1-352)
T1 sequence (P61073 whole entry): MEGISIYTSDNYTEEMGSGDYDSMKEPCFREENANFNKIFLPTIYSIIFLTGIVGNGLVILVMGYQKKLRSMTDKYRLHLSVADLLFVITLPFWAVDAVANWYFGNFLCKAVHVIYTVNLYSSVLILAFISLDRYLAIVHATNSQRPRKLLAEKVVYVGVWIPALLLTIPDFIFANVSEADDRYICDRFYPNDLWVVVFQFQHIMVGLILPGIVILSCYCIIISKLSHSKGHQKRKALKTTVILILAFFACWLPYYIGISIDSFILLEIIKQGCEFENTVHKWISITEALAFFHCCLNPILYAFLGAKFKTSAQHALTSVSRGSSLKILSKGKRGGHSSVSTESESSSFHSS
Test: cell-based or functional assay

| Binder | AUC (% of vehicle), chemotaxis, CEM, 1.0 uM | Max (% of vehicle), chemotaxis, CEM, 1.0 uM | Peak Ratio, chemotaxis, CEM, 1.0 uM | Peak Ratio, chemotaxis, CEM, 0.01 uM | Peak Ratio, chemotaxis, CEM, 0.03 uM | Peak Ratio, chemotaxis, CEM, 0.1 uM | Peak Ratio, chemotaxis, CEM, 0.3 uM | Peak Ratio, chemotaxis, CEM, 3.0 uM |
| --- | --- | --- | --- | --- | --- | --- | --- | --- |
| B1 | 34.2 % of vehicle | 63.1 % of vehicle | 1 |  |  |  |  |  |
| B2 | 48.9 % of vehicle | 54.7 % of vehicle | 0.2 |  |  |  |  |  |
| B3 | 77.5 % of vehicle | 92.1 % of vehicle | 1 |  |  |  |  |  |
| B4 |  |  |  | 1 | 1 | 0.2 | 1 | 1 |
| B5 | 15.9 % of vehicle | 54.8 % of vehicle | 0.2 |  |  |  |  |  |
| B6 | 144 % of vehicle | 132 % of vehicle | 1 | 0.04 | 0.04 | 0.04 | 0.2 | 1 |
| B7 |  |  | 0.2 | 0.2 | 0.2 | 0.2 | 0.2 | 1 |
| B8 | 65.3 % of vehicle | 80.5 % of vehicle | 1 |  |  |  |  |  |
| {C27H50N3O2SC(O)‑}-HSKGHQKRKQALK-NH2 (reading uncertain) [CXCR4 i3 loop compound 87] | 52.6 % of vehicle | 76.1 % of vehicle | 0.2 |  |  |  |  |  |
| B9 | 37.5 % of vehicle | 59.7 % of vehicle | 0.04 |  |  |  |  |  |

Molecular target: T1, CXCR4 receptor
Test: cell-based or functional assay
Remark: another data set of the same source

| Binder | AUC (% of), CHTX, CEM, 1.0 uM | AUC (% of), CHTX, SUP B-15, 1.0 uM | Max (% of), CHTX, CEM, 1.0 uM | Max (% of), CHTX, SUP B-15, 1.0 uM | Peak Ratio, CHTX, CEM, 1.0 uM | Peak Ratio, CHTX, SUP B-15, 1.0 uM | Peak Ratio, CHTX, CEM, 1.0 uM (row labelled 46, sequence of 42) |
| --- | --- | --- | --- | --- | --- | --- | --- |
| B10 | 66.7% | 51.7% | 76.8% | 41.7% | 0.01 | 0.04 |  |
| B11 |  | 71.9% |  | 71.2% |  | 0.2 |  |
| B12 |  | 43.8% |  | 33.5% |  | 0.2 | 0.01 |
